Substitutions are numbered along the chain they refer to.
Tests used:
Experiment in all cases: EMSA
Details in all cases: EMSA: 25 mM Tris-HCl pH 8.0, 50 mM KCl, 2.5 mM MgCl2, 5% glycerol, 1 mM DTT, 100 ug/mL salmon sperm DNA, 100 ng Cy5 probe in 20 ul, 25 C 20 min; native PAGE at …
[1] = target: T1, DgoR (EcoDgoR) WT (Escherichia coli) (UniProt P31460)
T1 sequence: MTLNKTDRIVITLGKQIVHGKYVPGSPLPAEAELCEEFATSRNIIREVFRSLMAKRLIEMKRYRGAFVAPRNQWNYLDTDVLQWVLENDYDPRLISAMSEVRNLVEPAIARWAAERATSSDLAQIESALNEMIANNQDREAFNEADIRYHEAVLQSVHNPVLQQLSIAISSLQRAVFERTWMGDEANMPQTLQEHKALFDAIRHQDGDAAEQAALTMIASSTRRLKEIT

[2] = target: T2, DgoR D146A D146A (Escherichia coli) (UniProt P31460)
T2 sequence: T1 sequence with D146A

[3] = target: T3, DgoR D184A D184A (Escherichia coli) (UniProt P31460)
T3 sequence: T1 sequence with D184A

[4] = target: T4, DgoR H150A H150A (Escherichia coli) (UniProt P31460)
T4 sequence: T1 sequence with H150A

[5] = target: T5, DgoR H195A H195A (Escherichia coli) (UniProt P31460)
T5 sequence: T1 sequence with H195A

[6] = target: T6, DgoR Q173A Q173A (Escherichia coli) (UniProt P31460)
T6 sequence: T1 sequence with Q173A

[7] = target: T7, DgoR R102A R102A (Escherichia coli) (UniProt P31460)
T7 sequence: T1 sequence with R102A

[8] = target: T8, DgoR R179A R179A (Escherichia coli) (UniProt P31460)
T8 sequence: T1 sequence with R179A

[9] = target: T9, DgoR R224A R224A (Escherichia coli) (UniProt P31460)
T9 sequence: T1 sequence with R224A

[10] = target: T10, DgoR R224E R224E (Escherichia coli) (UniProt P31460)
T10 sequence: T1 sequence with R224E

[11] = target: T11, DgoR S221A S221A (Escherichia coli) (UniProt P31460)
T11 sequence: T1 sequence with S221A

[12] = target: T12, DgoR T191A T191A (Escherichia coli) (UniProt P31460)
T12 sequence: T1 sequence with T191A

[13] = target: T13, DgoR W181A W181A (Escherichia coli) (UniProt P31460)
T13 sequence: T1 sequence with W181A

## TGTAAAACGACGGCCAGTGCATTGTTCTTTTTGTGATCTAAATTGTAGTACAACAATATAAGTTTGTACTACATTACACGCACGGCAAACGCGAACGTCATCACGCTGGTACTACAAAGTTGCCGCGTTATGCATCGATCGGGGTAAAGTAGAGAAGAACATACAGAGCACAAGGACTCTCCATGACTCTCAATAAAACCGATCGCATTGTC (double strand) [dgo cis-acting element (promoter region)]
[1]
  binding: binds
[2]
  binding: binds
[3]
  binding: binds more weakly
[4]
  binding: binds more weakly
[5]
  binding: binds more weakly
[6]
  binding: binds more weakly
[7]
  binding: binds more weakly
[8]
  binding: binds
[9]
  binding: binds more weakly
[10]
  binding: binds more weakly
[11]
  binding: binds
[12]
  binding: binds more weakly
[13]
  binding: binds

— article PMC7674646, “Structural and Functional Analyses of the Transcription Repressor DgoR From Escherichia coli Reveal a Divalent Metal-Containing D-Galactonate Binding Pocket” (Frontiers in Microbiology, 2020)
